The values below come from patent publication US20240026407A1, “MODIFICATION OF SAPONINS” (GLAXOSMITHKLINE BIOLOGICALS SA, priority 2020, published 2024).

First the molecules themselves.
B1: 63 (protein, listed as Gynuella sunshinyii)
chain: MFDPVTILKQLNREEKVQLLCGLDAWHLHGVERLGIPSITLTDGPHGVRLAQSHDVFDSVDATVFPVEAAMAATWNVGLIKELAGAIAKECQQLGVSVLLGPGVNGKRSPLGGRNFEYFSEDPYLTGAMASNFVEGVQSQGVGACLKHFAGNEQETRRFLINSVIDERTLQEMYIAPFAKAIRESRPWTVMGAYNSVNGQFACQNSHLLQDILRDQLGFDGLVMSDWGAVGDKVACHQHGLDLEMPGPADRDQQLLDALDNGDMSEVVLDSRVLKVLELIHKSVTHKRDVQVDFERHHELAIEVACDSAVLLKNSGNLPLDKSRSIGLIGQFAKHPRFQGGGSSHMNPRHLSNAFEAFCSRAEVSWAMGYEELEMTDEMLREAVALAKRVDQVVLLTGTTDALESEGFDRSNMRLPEAHVELIKAVYQTNSNVVVVMYAGSALETRQIEDYAPSLMHAWLPGEGGGEALARLLFGEVSPSGKLSETFPVRLEHNPTYESFPGNKADTIYNEGIFTGYRYYDTKKLPVQYPFGYGLSYTSFAYSDLSYDASCREVAVNVTNIGDMAGAEVVQVYIHDEHSTLRRPDQELKGFAKVMLQPGETQRVSIALDEQAFAYFVTHLQRFAEESGRFEIRVGSSSRDIHESLWIELESDIECRQIPTLNDTVEDWLRDDRTRPILEDAFAQVGFTKDHSFYALTLGFPMTLLKKFMPMMGLTEQQCESLKDKLGLE
B2: 176 (protein, listed as Streptomonospora sp.)
chain: MTTANRAAHAADAAREPQVEAALARLDLDGRIRLLSGATMWAIAPNPDIGLERLVMSDGPVGVRGEHWTPDDPALQLPSPTALAATWDTELIRTVGRTLAQEARRKGVHVLLAPTVNIHRSPLGGRHFECYSEDPLLTGRIGTAYVDGVQDGGVGTTVKHFVANDSETDRFTVDVRVDERTLREIYLAPFEAIVDGARPWGVMAAYNGVNGTTMTEHARLNAVLRDEWGFDGFIVSDWTAARDTVGCALAGMDVAMPGPSTVYGENLRAAVREGRVPEGAVEAMARRVLRLAARVGALEGAEPAVAPAALPPAIDGRAVAREAAARSFTLLRNEGRALPIDPARVGSVALIGLAADEARTSGGGSATVFTEHTVSPREGLRAALPESVRLDYAVGADPRASLPPLAGPLTAAFRDADGTVLATERLADGTARWIGELPDGVTAEGLSTIEVSGTLTPAYTGTHVFGAKGVGHFRLAVGGRVGFDGVNEVDGDDPGAGFLNPPESTAEFALTAGEAVEVSVVATVPGVSADFAFIGFSLNHSEPRAGDDELIEEAVRTAAGADVAIVIAATTEEVESEGFDRDSLELPGRQDELVSRVAAANPRTVAVVNTGSPVVMPWRGDVAAVLLTWFGGQELGAALADVLLGAEEPGGRLPTTWPAEQADVPVIGVRPDGGVLEYSEGVFVGYRAWQRLGAEPAYWFGHGLGYTTWDYTGADAAVRLDGGVSVTARLANTGARRGREVVQVYVSPQEEGGAPERPRRWLAGFAPVVAEPGASAEAVVEVPARAFQVWDSAAHDWRTVPGGYDVLVGRSVADTPVSARVEIAG
B3: 365 (protein)
chain: MEDDGANSKTELSDQRKVALLSGADDWHTEAVPELGLEAVMMADGPHGLRKVMSASLADLQASEPATCFPTGSALAATWDRVLAGDVGRAIGREAVAEGVGVVLGPAVNLKRHPAAGRNFEYFSEDPFLAGELAVAWIDGVQGEGVGASLKHFAVNNQEANRMVVDAVVDPATLRELYLGAFEAAVRRSRPWTVMSAYNLLNGVYCSEDPWLLSELLRDQWGFDGLVVTDWGANDDRVAGIRAGQDLEMPGGHGTHDAAVLAALADGSLHRADLDGCVRRVLALLERADGARSGRPGSAMASPRPGADPDALHREHHQLARRAAAAGTVLLTNDGTLPLAPSGHVALIGEFAAHPRFQGGGSSQVKATRSDNLHAELRTHVDAAGGRVQYAPGYVLRARDDRPGEPARRVDEAVSIARGAEVAVVVVGLPDAVESEGFDRDHLHLPESHNILVRAVCAANPNTVVIVVAGSPVTMDWVDQPAAIIHGYLGGQAAGGALADVLVGAAEPGGRLAETFPVRSAGVASDRWFPGEPHQVTYREGPYIGYRWFDASGATPLFPFGHGLSYAEITLGVPTLSAQHVDAGVLLGGTDVVAPAEVPPPGAGPVAFTVTVPLTNAGDRAGSEVVQVYLESPDTGRPAAHRHLVGFAKVNLEPNSTREATVDVHARALCHWHPADRGWAVSAGTWGVAVGCSSGNLPHGLMVEVASSWSAPEPDPALDPYRNPRPDDWDPGVAAFEALLGRSVPEPTPVRPFTRNTTLGELGETRLGRPLLALVRAIVAHTTGGAHDEGGLGAMIDRSLGELPLRNLAVMSQGRVPMSAINRLIALANRMPGHPAGHPPGRPPGRSVGFTRPGRRR
modifications: Candidatus microthrix
B4: 229 (protein, listed as Nectria haematococca)
chain: MASVDIPAILATLSLEEKVSLLAGKNLWETVPVPSKGVPNVKVSDGPNGARGASFAGGTTAACFPAACLMASTFDVKLAKRIGSALAEETQSKGARCLLAPTMCLHRHPLGGRNFESFSEDPLLTGKMAARVVEGLQDKGVSATIKHFAVNEQETDRLTVDETVNERALRELYLRPFEIAVKEANPWAVMTAYNKINGHHADCHPFTLKKVLRGDWGWNGLVMSDWGGTNSTPDSLEAGLDLEMPGPTRWRKPEDVIAAIKEGKTSEKTIDERATNVLRFLERLGCFKDPTIPDEKAINKPEHQALIREAGSKGIVLLKNQDKILPLSKEKVKGKKIALLGHAKIGLAHGGGSASVSAHYKVTPWDALHEALGDSVEFSYAKGAHTFRTLPAIAENVVGLDGKPGFTFKVYEPGSSEPIETRHGHADSEVSALGSFGFLNKDVSLEGAFTPQETAQYYFTCSGLGPSKLIIDDKVVYEQTENCSDAMGFLFGGVAAPEFKVALEAGRQYKLVLRTSPPSANDREDLGILEGLCGLRVGSMSESEHDRDLVSEAVEVAKNADYAVIFTGHEPFWETEGQDQVSFNLPKDGSQDRLISAVAAANPNTVVVNSTGVAIAMPWLNEIQGFLQTWYPGQECGNSIADVLTGAQTPEGHLTCTFPKKIEDCPAYGNFPGEYDNGKLKVTYKEGVFIGYRHFDRLPADKVNFPFGFGLSYTTFDFSSLEVKESGEGYTASLKVSNTGDVVGAIAVQVYVGAAQTAEENPVKQLVAFEKVTVKPGETASVEVPVRTRDFGFFDESKQKWVVKGGDYKFLIGKSARDIVLESTVAVKEQSFDL

A short description of one assay: Experiment 4-1: screening of glucosidases for deglycosylation with purified QS-18 (0.04 mg/ml) at pH 7.5 and room temperature. The format is biochemical, Quillaja saponaria. The settings on record: pH 7.5, room temperature, 20 h, clarified E. coli lysate, QS-18 2150 to QS-21 1988 by LCMS/MS. The essentials: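 Deglycosylation measured by LC-MS/MS as % conversion after 20 h room-temperature incubation of QS-18 phenyl fraction (0.04 mg/ml final) with polymyxin B/lysozyme lysates, pH 7.5 phosphate, of E. coli BL21(DE3) expressing each enzyme; MeCN quench. Positives exceeded negative control by >3 S.D.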
On to B1, for which the “Expt 4-1 % conv” value was 95.6%.

B2: the “Expt 4-1 % conv” value was found to be 1.2%.

For the molecule B3, the “Expt 4-1 % conv” value was determined as 1.3%.

In the case of B4, the “Expt 4-1 % conv” value came out at 91.1%.

The nature of a further assay: Experiment 4-2: screening of glucosidases for deglycosylation with purified QS-18 (1 mg/ml) at pH 6 and 30 deg C. The format is biochemical, Quillaja saponaria. The settings on record: pH 6, 30 degC, 18 hrs, clarified lysate, LCMS/MS. The essentials: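 Enzyme activity derived from LC-MS/MS analysis after MeCN quench. Substrate QS-18 (1 mg/ml final) was exposed overnight (18 h, 30 °C, pH 6 phosphate buffer) to clarified lysates containing candidate glucosidases.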
Regarding B1, the “Expt 4-2 % conv” value is reported as 54.2%.

Regarding B2, the “Expt 4-2 % conv” value was 0.4%.

Turning to B3, the “Expt 4-2 % conv” value was 0.4%.

With B4, the “Expt 4-2 % conv” value is on record as 14.2%.

The nature of a further assay: Experiment 4-4: screening of glucosidases for deglycosylation of QS-18 in crude bark extract (1 in 20 dilution) to QS-21. The format is biochemical, Quillaja saponaria. The settings on record: CBE 1 in 20 dilution, pH 6, 25 degC, 18 hours; % conversion of Middle Peak by UV HPLC. A digest of the protocol:
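Clarified glucosidase lysates were incubated with pH 6 crude bark extract (1 in 20) in potassium phosphate buffer pH 6 for 18 h at 25 °C with shaking, then quenched with MeCN. UV HPLC with MS/MS-supported peak identity; activity is % conversion of the extract's Middle Peak (QS-18 family) toward the QS-21 peak.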
For the molecule B1, the “Expt 4-4 % conv” value is <3%.

B2: the “Expt 4-4 % conv” value is <3%.

For B3, the “Expt 4-4 % conv” value is <3%.

With B4, the “Expt 4-4 % conv” value is recorded as <3%.
